Assay results from paper PMC8503651, “The Stress-Active Cell Division Protein ZapE Alters FtsZ Filament Architecture to Facilitate Division in Escherichia coli” (Frontiers in Microbiology, 2021).

B4: FtsZ (native) (natural protein, Escherichia coli, UniProt P0A9A6 1-383, looked up)
chain: MFEPMELTNDAVIKVIGVGGGGGNAVEHMVRERIEGVEFFAVNTDAQALRKTAVGQTIQIGSGITKGLGAGANPEVGRNAADEDRDALRAALEGADMVFIAAGMGGGTGTGAAPVVAEVAKDLGILTVAVVTKPFNFEGKKRMAFAEQGITELSKHVDSLITIPNDKLLKVLGRGISLLDAFGAANDVLKGAVQGIAELITRPGLMNVDFADVRTVMSEMGYAMMGSGVASGEDRAEEAAEMAISSPLLEDIDLSGARGVLVNITAGFDLRLDEFETVGNTIRAFASDNATVVIGTSLDPDMNDELRVTVVATGIGMDKRPEITLVTNKQVQQPVMDRYQQHGMAPLTQEQKPVAKVVNDNAPQTAKEPDYLDIPAFLRKQAD
notes: FtsZ, tubulin-like GTPase and cell division protein of Escherichia coli; native (no tag named); Assembles into polymers with GTP; also called Native FtsZ; wild type FtsZ; source: E. coli BL21 (λde3), purified as described (Camberg et al., 2009)

Key:
[1] = molecular target: ZapE (N-terminal six histidine fusion protein) (Escherichia coli) (UniProt P64612); assay: co-sedimentation; phospholipid recruitment: Gfp-FtsZ (3 μM) with GTP (4 mM) added to ZapE (1 μM) pre-assembled with SUVs (500 μg ml^-1) and ATP (4 mM); 50 mM HEPES pH 7.5, 150 mM KCl, 20 mM MgCl2; 21,000 × g for 15 min; percent in the pellet by densitometry; 6% of Gfp-FtsZ in the pellet without …
FtsZ (native) [2] = molecular target: B4; assay: cell-based or functional assay
[3] = molecular target: Histidine-tagged Gfp-FtsZ (Escherichia coli); assay: filter retention (ultrafiltration, 100 kDa filter); ZapE or ZapE(K84A) (5 μM) with Gfp-FtsZ (10 μM) and ATP (4 mM), without GTP; 50 mM MES pH 6.5, 100 mM KCl, 10 mM MgCl2, 23°C, 10 min; filtrate and retentate by SDS-PAGE and densitometry; ZapE alone retained 33.4%, ZapE(K84A) alone 50.3%
[4] = substrate: Nc1ncnc2c1ncn2[C@@H]1O[C@H](COP(=O)(O)OP(=O)(O)OP(=O)(O)O)[C@@H](O)[C@H]1O; assay: phosphate release (Biomol Green), Michaelis-Menten fit; assay type: biochemical, Escherichia coli; details: 12 μM ZapE, ATP 0 to 5 mM, 50 mM HEPES pH 7.5, 150 mM KCl, 20 mM MgCl2, 23°C
FtsZ (native) [5] = molecular target: B4; assay: co-sedimentation; FtsZ (6 μM) with GTP (2 mM) or without GTP, with or without ZapE or ZapE(K84A) (8 μM), with or without ATP or ATPγS (4 mM); 50 mM HEPES pH 7.5, 150 mM KCl, 20 mM MgCl2, 23°C, 10 min; 250,000 × g for 20 min; supernatants and pellets by SDS-PAGE and Coomassie; details: both partners purified
[6] = molecular target: the molecule itself; assay: as above

Molecule Histidine-tagged Gfp-FtsZ has a percent of total Gfp-FtsZ in the phospholipid pellet [1] of 21.6%.

B1: ZapE (N-terminal six histidine fusion protein) (enzyme, Escherichia coli, UniProt P64612 1-375, looked up)
chain: MQSVTPTSQYLKALNEGSHQPDDVQKEAVSRLEIIYQELINSTPPAPRTSGLMARVGKLWGKREDTKHTPVRGLYMWGGVGRGKTWLMDLFYQSLPGERKQRLHFHRFMLRVHEELTALQGQTDPLEIIADRFKAETDVLCFDEFFVSDITDAMLLGGLMKALFARGITLVATSNIPPDELYRNGLQRARFLPAIDAIKQHCDVMNVDAGVDYRLRTLTQAHLWLSPLHDETRAQMDKLWLALAGGKRENSPTLEINHRPLATMGVENQTLAVSFTTLCVDARSQHDYIALSRLFHTVMLFDVPVMTRLMESEARRFIALVDEFYERHVKLVVSAEVPLYEIYQGDRLKFEFQRCLSRLQEMQSEEYLKREHLAG
In the case of B1, the “maximum 90° light scatter of FtsZ (8 μM) after addition of GTP (1.5 mM), ZapE 0 to 8 μM with ATP (4 mM)” value (FtsZ (native) [2]) is reported as greater than 2 fold and the percent of total ZapE retained on the filter [3] is reported as 63.4%.

B2: ZapE (H6-ZapE) (Escherichia coli K-12) (protein)
chain: MQSVTPTSQYLKALNEGSHQPDDVQKEAVSRLEIIYQELINSTPPAPRTSGLMARVGKLWGKREDTKHTPVRGLYMWGGVGRGKTWLMDLFYQSLPGERKQRLHFHRFMLRVHEELTALQGQTDPLEIIADRFKAETDVLCFDEFFVSDITDAMLLGGLMKALFARGITLVATSNIPPDELYRNGLQRARFLPAIDAIKQHCDVMNVDAGVDYRLRTLTQAHLWLSPLHDETRAQMDKLWLALAGGKRENSPTLEINHRPLATMGVENQTLAVSFTTLCVDARSQHDYIALSRLFHTVMLFDVPVMTRLMESEARRFIALVDEFYERHVKLVVSAEVPLYEIYQGDRLKFEFQRCLSRLQEMQSEEYLKREHLAG
notes: full-length, N-terminal 6xHis tag kept, pET-28a, expressed in E. coli BL21 (λde3); calculated mass 44,583 Da; predominantly monomer
B2 showed a Km [4] of 1700 ± 360 µM.

B3: ZapE(K84A) (N-terminal histidine fusion protein) (enzyme, Escherichia coli, UniProt P64612 1-375, looked up)
chain: MQSVTPTSQYLKALNEGSHQPDDVQKEAVSRLEIIYQELINSTPPAPRTSGLMARVGKLWGKREDTKHTPVRGLYMWGGVGRGATWLMDLFYQSLPGERKQRLHFHRFMLRVHEELTALQGQTDPLEIIADRFKAETDVLCFDEFFVSDITDAMLLGGLMKALFARGITLVATSNIPPDELYRNGLQRARFLPAIDAIKQHCDVMNVDAGVDYRLRTLTQAHLWLSPLHDETRAQMDKLWLALAGGKRENSPTLEINHRPLATMGVENQTLAVSFTTLCVDARSQHDYIALSRLFHTVMLFDVPVMTRLMESEARRFIALVDEFYERHVKLVVSAEVPLYEIYQGDRLKFEFQRCLSRLQEMQSEEYLKREHLAG
notes: ZapE of Escherichia coli with the Walker A substitution K84A (defective for ATP hydrolysis); pET-28a, site-directed mutagenesis; also called H6-ZapE(K84A); His6-zapE(K84A); source: E. coli BL21 (λde3), purified (cobalt column, sephadex G25); not shown: His6, N-terminal, kept
In the case of B3, the binding result (FtsZ (native) [5]) is reported as “binds” and the percent of ZapE(K84A) retained on the filter [3] is reported as 80.2%.

B4: binds [6].
